Molecular target: HIV envelope protein on HIV-infected cells (HIV)
Assay: cell-based or functional assay

**Q.** Which HIV-infected cells killed at 48 hours, against CARCD19 T-cells does the source give for “anti-HIV chimeric antigen receptor comprising scFv derived from PGT128 (PGT128 CAR)” here?
**A.** 56%

Reference: patent publication US20170044240A1
